Measurements reported in article PMC4041471, “Cas6 specificity and CRISPR RNA loading in a complex CRISPR-Cas system” (Nucleic Acids Research, 2014).

Assays:
[1] = target: Recombinant Cas6-1 (Sso1437) (S. solfataricus) (UniProt Q97Y96); experiment: SEC; recombinant Cas6-1 alone on Superdex 200 in GF buffer (20 mM sodium phosphate pH 7.5, 250 mM NaCl, 5 mM EDTA, 0.5 mM DTT)
Cas6-1 [2] = target: T1, Cas6-1 (Saccharolobus/Sulfolobus solfataricus P2, UniProt Q97Y96 1-287); experiment: fluorescence quenching; 25 C; apparent Kd, fit with variable Hill coefficient; partial cleavage not ruled out; EMSA: NR buffer (composition not in material) with 2 uM BSA, 0.5 nM RNA (legend: 1 nM), 15 min at 20 C, 6% native PAGE in 1x TBE; fluorescence quenching at 25 C, buffer not in material; conditions: protein: recombinant; chain copies: 2; label: 5'-FAM
T1 sequence: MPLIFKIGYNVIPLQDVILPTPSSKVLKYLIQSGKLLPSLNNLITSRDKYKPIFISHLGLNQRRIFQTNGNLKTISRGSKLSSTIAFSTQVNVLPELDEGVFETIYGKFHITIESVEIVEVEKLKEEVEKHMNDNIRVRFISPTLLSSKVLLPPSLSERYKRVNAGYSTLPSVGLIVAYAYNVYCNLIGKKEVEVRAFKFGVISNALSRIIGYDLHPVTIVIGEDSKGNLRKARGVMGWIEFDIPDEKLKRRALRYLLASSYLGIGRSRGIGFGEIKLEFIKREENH

Cas6-1 [3] = target: T1, Cas6-1; experiment: EMSA; 20 C; apparent Kd, intermediate shifted species; EMSA: NR buffer (composition not in material) with 2 uM BSA, 0.5 nM RNA (legend: 1 nM), 15 min at 20 C, 6% native PAGE in 1x TBE; fluorescence quenching at 25 C, buffer not in material; conditions: protein: recombinant; chain copies: 2; label: 5'-32P
Cas6-1 [4] = target: T1, Cas6-1; experiment: EMSA; 20 C; apparent Kd, no intermediate bands; EMSA: NR buffer (composition not in material) with 2 uM BSA, 0.5 nM RNA (legend: 1 nM), 15 min at 20 C, 6% native PAGE in 1x TBE; fluorescence quenching at 25 C, buffer not in material; conditions: protein: recombinant; chain copies: 2; label: 5'-32P
Cas6-1 [5] = target: T1, Cas6-1; experiment: fluorescence quenching; 25 C; apparent Kd, fit with variable Hill coefficient; EMSA: NR buffer (composition not in material) with 2 uM BSA, 0.5 nM RNA (legend: 1 nM), 15 min at 20 C, 6% native PAGE in 1x TBE; fluorescence quenching at 25 C, buffer not in material; conditions: protein: recombinant; chain copies: 2; label: 5'-FAM
[6] = target: the molecule itself; experiment: SEC; S. solfataricus cell lysate on Superdex 200 in GF buffer (20 mM sodium phosphate pH 7.5, 250 mM NaCl, 5 mM EDTA, 0.5 mM DTT); 2 ml fractions analysed by western blotting

**Q.** With “Recombinant Cas6-1 (Sso1437) (from UniProt Q97Y96 1-287) (enzyme)” as the molecule, how does the stoichiometry N [1] read?
**A.** 2

**Q.** How did the Kd (Cas6-1 [2]) turn out when UGAUAAUCUCUUAUAGAAUUGAAAG (ssRNA) [FAM-CD repeat RNA] was run?
**A.** ~14 nM

**Q.** GAUAAUCUCUUAUAGAAUUGAAAG (ssRNA) [CD-repeat RNA (32P)] was tested. Which Kd (Cas6-1 [3]) did it give?
**A.** ~16 nM

**Q.** Which Kd (Cas6-1 [4]) does the source give for GAUUAAUCCCAAAAGGAAUUGAAAG (ssRNA) [AB-repeat RNA (32P)] here?
**A.** 350 nM

**Q.** How did the Kd (Cas6-1 [5]) turn out when UGAUAAUCUCUUAUAGA (ssRNA, 3'-phosphate) [FAM-CDproduct RNA] was run?
**A.** ~14 nM

B1: Cmr7 (Sso1986) subunit of CMR, free protein in the lysate (natural protein, UniProt Q97WX5 1-197, looked up)
chain: MTSGAGWEEQVFLPITNSISSEDNNQIKIGSSVSIEYNQNGQHVSQIDDKGLHNILVLTGYAIDESTGELVPTFDPCDYVKGILISGKILKGNHFKIIGIPSNKLYIIRKKDVHGNITFSLPIKNFNTGTYQVDLRDKVTSFVSLDRDVAKTIVDNVLAKIYAKIYNSLNKEQKDKLYRDVEEIFNYYSIKSLKSNP
notes: Cmr7 (Sso1986), subunit of the CMR complex of Sulfolobus solfataricus; also called dimeric Cmr7 protein; source: endogenous, S. solfataricus lysate
**Q.** With B1 as the molecule, how does the “stoichiometry N” value [6] read?
**A.** 2
